Measured values published in PMC9977294, “A parasitic fungus employs mutated eIF4A to survive on rocaglate-synthesizing Aglaia plants”.

Assays:
eIF4A1 Phe163Gly = eIF4A1 Phe163Gly (Homo sapiens, UniProt P60842 1-406, F163G); assay: fluorescence polarization; 1 mM AMP-PNP, DMSO; 20 mM HEPES-NaOH pH 7.5, 150 mM NaCl, 1 mM MgCl2, 1 mM DTT, 5% glycerol, 1% DMSO, 10 nM FAM-RNA, 0-25 uM protein (source data up to 50), 1 mM AMP-PNP or 1 mM ADP + 1 mM Na2HPO4, room temperature 30 min; Hill fit, n = 3; settings: protein: recombinant; tags: His; single strand
Sequence of eIF4A1 Phe163Gly (P60842 whole entry F163G): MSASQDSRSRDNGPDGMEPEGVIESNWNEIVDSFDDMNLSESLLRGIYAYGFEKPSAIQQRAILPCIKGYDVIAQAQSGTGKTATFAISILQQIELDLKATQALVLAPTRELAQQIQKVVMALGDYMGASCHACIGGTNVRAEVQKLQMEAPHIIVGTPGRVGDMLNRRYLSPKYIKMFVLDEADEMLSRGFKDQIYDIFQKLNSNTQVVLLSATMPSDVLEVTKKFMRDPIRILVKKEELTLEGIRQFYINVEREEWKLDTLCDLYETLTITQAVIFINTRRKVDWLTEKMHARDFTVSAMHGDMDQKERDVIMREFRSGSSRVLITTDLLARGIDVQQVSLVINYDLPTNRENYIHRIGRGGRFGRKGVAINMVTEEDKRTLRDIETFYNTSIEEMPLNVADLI

eIF4A1 Phe163His = eIF4A1 Phe163His (Homo sapiens, UniProt P60842 1-406, F163H); assay: as above; settings: protein: recombinant; tags: His; single strand
Sequence of eIF4A1 Phe163His (P60842 whole entry F163H): as the sequence (P60842 whole entry F163G) above, with G163H counted along it

## AGAGAGAGAGAGAGAGAGAG (ssRNA) [[AG]10 polypurine RNA]
eIF4A1 Phe163Gly
  Kd: 21 ± 6.7 µM
eIF4A1 Phe163His
  Kd: 16 ± 2.7 µM
